US20240024499A1

Molecular target: glypican-3 (GPC3) on GPC3-positive liver cancer cell lines HepG2-C3A and Hep3B (human) (UniProt P51654)
Assay: flow cytometry on GPC3-positive HepG2-C3A and Hep3B cells, anti-hIgG-AF488 detection

glypican-3 (GPC3) on GPC3-positive liver cancer cell lines HepG2-C3A and Hep3B (human), sequence (P51654 25-580): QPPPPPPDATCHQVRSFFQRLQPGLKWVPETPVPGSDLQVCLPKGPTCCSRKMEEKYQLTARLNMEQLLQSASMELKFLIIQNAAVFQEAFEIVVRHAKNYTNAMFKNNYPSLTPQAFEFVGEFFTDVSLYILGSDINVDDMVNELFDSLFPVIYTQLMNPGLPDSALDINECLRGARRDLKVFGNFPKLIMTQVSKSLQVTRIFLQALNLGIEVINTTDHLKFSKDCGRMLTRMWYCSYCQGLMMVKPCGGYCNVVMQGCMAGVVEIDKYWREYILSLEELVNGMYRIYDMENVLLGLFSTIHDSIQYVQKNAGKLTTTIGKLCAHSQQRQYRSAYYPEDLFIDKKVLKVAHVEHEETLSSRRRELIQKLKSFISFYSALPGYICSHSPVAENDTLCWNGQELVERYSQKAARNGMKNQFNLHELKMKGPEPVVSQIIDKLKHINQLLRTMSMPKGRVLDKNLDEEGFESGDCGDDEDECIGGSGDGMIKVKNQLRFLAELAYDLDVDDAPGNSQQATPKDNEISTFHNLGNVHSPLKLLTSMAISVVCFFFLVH

EC50: 3.5 to 4 nM
B1: ARD103 antibody (antibody, human IgG1, kappa, V domains shown)
VH: QVQLVESGAEVKKPGASVKVSCKASGYTFTDYEMHWVRQAPGQGLEWMGALDPKTGDTAYSQKFKGRVTLTADKSTSTAYMELSSLTSEDTAVYYCTRFYSYTYWGQGTLVTVSS
VL: DVVMTQSPLSLPVTPGEPASISCRSSQSLVHSNGNTYLHWYLQKPGQSPQLLIYKVSNRFSGVPDRFSGSGSGTDFTLKISRVEAEDVGVYYCSQNTHVPPTFGQGTKLEIKR
